Test results taken from publication PMC10237651, “Arabidopsis FIN219/JAR1 interacts with phytochrome A under far-red light and jasmonates in regulating hypocotyl elongation via a functional demand manner” (PLOS Genetics, 2023).

Biological target: T1, CBP-PHYA (recombinant full-length PHYA) (Arabidopsis, UniProt P14712 1-1122)
T1 construct: phytochrome A (PHYA), Arabidopsis, At1g09570, full length; coding region cloned into pCAL-n in frame with an upstream CBP tag; Made in E. coli; no chromophore is mentioned; also called CBP-PHYA-F; source: E. coli (BL21), purified (Calmodulin Resin)
T1 sequence (looked up): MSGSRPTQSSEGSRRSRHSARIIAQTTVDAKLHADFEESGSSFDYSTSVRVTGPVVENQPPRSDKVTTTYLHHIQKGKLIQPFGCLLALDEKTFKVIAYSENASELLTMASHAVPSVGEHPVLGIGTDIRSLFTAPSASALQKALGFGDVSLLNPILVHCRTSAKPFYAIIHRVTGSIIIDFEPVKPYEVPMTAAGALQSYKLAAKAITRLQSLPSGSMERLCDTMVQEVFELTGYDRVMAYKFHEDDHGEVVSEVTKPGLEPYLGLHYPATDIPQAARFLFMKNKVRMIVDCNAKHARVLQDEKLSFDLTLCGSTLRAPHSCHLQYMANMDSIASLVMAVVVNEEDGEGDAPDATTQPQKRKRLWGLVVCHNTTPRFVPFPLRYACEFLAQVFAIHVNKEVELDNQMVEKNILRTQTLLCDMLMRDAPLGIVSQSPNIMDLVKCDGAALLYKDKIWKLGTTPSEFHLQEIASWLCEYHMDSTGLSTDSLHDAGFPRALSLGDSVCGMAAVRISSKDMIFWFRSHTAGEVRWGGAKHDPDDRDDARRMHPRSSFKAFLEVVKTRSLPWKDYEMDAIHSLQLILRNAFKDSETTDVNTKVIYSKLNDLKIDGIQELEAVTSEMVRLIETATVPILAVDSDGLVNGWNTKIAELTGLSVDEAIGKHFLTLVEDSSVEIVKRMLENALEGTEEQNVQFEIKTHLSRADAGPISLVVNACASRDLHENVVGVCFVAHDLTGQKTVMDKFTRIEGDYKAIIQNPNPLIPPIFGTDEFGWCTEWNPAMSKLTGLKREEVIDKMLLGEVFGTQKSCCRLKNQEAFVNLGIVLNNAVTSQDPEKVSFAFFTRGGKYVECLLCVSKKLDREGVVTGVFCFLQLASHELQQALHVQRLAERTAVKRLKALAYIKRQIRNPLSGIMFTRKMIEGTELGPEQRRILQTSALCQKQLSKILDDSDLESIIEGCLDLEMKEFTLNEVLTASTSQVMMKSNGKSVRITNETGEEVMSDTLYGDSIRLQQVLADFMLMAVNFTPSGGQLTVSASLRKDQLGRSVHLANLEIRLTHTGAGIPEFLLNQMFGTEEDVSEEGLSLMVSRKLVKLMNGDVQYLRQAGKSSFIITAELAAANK
Assay: pull-down; 1 μg GST-tagged FIN219 protein on 10 μl GST beads overnight at 4°C in 1 ml 1X PBS, then 1 μg CBP-PHYA for 2 h at 4°C; eight washes with 1X PBS; blots with anti-GST and anti-phyA
Conditions: both partners purified

binding result: binds
B1: GST-FIN219-FL (enzyme, Arabidopsis, UniProt Q9SKE2 1-575, looked up)
chain: MLEKVETFDMNRVIDEFDEMTRNAHQVQKQTLKEILLKNQSAIYLQNCGLNGNATDPEEAFKSMVPLVTDVELEPYIKRMVDGDTSPILTGHPVPAISLSSGTSQGRPKFIPFTDELMENTLQLFRTAFAFRNRDFPIDDNGKALQFIFSSKQYISTGGVPVGTATTNVYRNPNFKAGMKSITSPSCSPDEVIFSPDVHQALYCHLLSGILFRDQVQYVFAVFAHGLVHAFRTFEQVWEEIVTDIKDGVLSNRITVPSVRTAMSKLLTPNPELAETIRTKCMSLSNWYGLIPALFPNAKYVYGIMTGSMEPYVPKLRHYAGDLPLVSHDYGSSEGWIAANVTPRLSPEEATFAVIPNLGYFEFLPVSETGEGEEKPVGLTQVKIGEEYEVVITNYAGLYRYRLGDVVKVIGFYNNTPQLKFICRRNLILSINIDKNTERDLQLSVESAAKRLSEEKIEVIDFSSYIDVSTDPGHYAIFWEISGETNEDVLQDCCNCLDRAFIDAGYVSSRKCKTIGALELRVVAKGTFRKIQEHFLGLGSSAGQFKMPRCVKPSNAKVLQILCENVVSSYFSTAF
notes: FIN219/JAR1, Arabidopsis, At2g46370, full length; also called full-length FIN219; source: E. coli, purified (Glutathione Sepharose 4B)
